# Measurements published in IntAct's records for PubMed 21642969.
# B1: Transcription intermediary factor 1-beta (Homo sapiens), Q13263 (parent)
# chain: MAASAAAASAAAASAASGSPGPGEGSAGGEKRSTAPSAAASASASAAASSPAGGGAEALELLEHCGVCRERLRPEREPRLLPCLHSACSACLGPAAPAAANSSGDGGAAGDGTVVDCPVCKQQCFSKDIVENYFMRDSGSKAATDAQDANQCCTSCEDNAPATSYCVECSEPLCETCVEAHQRVKYTKDHTVRSTGPAKSRDGERTVYCNVHKHEPLVLFCESCDTLTCRDCQLNAHKDHQYQFLEDAVRNQRKLLASLVKRLGDKHATLQKSTKEVRSSIRQVSDVQKRVQVDVKMAILQIMKELNKRGRVLVNDAQKVTEGQQERLERQHWTMTKIQKHQEHILRFASWALESDNNTALLLSKKLIYFQLHRALKMIVDPVEPHGEMKFQWDLNAWTKSAEAFGKIVAERPGTNSTGPAPMAPPRAPGPLSKQGSGSSQPMEVQEGYGFGSGDDPYSSAEPHVSGVKRSRSGEGEVSGLMRKVPRVSLERLDLDLTADSQPPVFKVFPGSTTEDYNLIVIERGAAAAATGQPGTAPAGTPGAPPLAGMAIVKEEETEAAIGAPPTATEGPETKPVLMALAEGPGAEGPRLASPSGSTSSGLEVVAPEGTSAPGGGPGTLDDSATICRVCQKPGDLVMCNQCEFCFHLDCHLPALQDVPGEEWSCSLCHVLPDLKEEDGSLSLDGADSTGVVAKLSPANQRKCERVLLALFCHEPCRPLHQLATDSTFSLDQPGGTLDLTLIRARLQEKLSPPYSSPQEFAQDVGRMFKQFNKLTEDKADVQSIIGLQRFFETRMNEAFGDTKFSAVLVEPPPMSLPGAGLSSQELSGGPGDGP
# Variants of: B1
# Details: with chd3_human CHD3, Q12873
# Sequence of chd3_human CHD3, Q12873 (Q12873 whole entry): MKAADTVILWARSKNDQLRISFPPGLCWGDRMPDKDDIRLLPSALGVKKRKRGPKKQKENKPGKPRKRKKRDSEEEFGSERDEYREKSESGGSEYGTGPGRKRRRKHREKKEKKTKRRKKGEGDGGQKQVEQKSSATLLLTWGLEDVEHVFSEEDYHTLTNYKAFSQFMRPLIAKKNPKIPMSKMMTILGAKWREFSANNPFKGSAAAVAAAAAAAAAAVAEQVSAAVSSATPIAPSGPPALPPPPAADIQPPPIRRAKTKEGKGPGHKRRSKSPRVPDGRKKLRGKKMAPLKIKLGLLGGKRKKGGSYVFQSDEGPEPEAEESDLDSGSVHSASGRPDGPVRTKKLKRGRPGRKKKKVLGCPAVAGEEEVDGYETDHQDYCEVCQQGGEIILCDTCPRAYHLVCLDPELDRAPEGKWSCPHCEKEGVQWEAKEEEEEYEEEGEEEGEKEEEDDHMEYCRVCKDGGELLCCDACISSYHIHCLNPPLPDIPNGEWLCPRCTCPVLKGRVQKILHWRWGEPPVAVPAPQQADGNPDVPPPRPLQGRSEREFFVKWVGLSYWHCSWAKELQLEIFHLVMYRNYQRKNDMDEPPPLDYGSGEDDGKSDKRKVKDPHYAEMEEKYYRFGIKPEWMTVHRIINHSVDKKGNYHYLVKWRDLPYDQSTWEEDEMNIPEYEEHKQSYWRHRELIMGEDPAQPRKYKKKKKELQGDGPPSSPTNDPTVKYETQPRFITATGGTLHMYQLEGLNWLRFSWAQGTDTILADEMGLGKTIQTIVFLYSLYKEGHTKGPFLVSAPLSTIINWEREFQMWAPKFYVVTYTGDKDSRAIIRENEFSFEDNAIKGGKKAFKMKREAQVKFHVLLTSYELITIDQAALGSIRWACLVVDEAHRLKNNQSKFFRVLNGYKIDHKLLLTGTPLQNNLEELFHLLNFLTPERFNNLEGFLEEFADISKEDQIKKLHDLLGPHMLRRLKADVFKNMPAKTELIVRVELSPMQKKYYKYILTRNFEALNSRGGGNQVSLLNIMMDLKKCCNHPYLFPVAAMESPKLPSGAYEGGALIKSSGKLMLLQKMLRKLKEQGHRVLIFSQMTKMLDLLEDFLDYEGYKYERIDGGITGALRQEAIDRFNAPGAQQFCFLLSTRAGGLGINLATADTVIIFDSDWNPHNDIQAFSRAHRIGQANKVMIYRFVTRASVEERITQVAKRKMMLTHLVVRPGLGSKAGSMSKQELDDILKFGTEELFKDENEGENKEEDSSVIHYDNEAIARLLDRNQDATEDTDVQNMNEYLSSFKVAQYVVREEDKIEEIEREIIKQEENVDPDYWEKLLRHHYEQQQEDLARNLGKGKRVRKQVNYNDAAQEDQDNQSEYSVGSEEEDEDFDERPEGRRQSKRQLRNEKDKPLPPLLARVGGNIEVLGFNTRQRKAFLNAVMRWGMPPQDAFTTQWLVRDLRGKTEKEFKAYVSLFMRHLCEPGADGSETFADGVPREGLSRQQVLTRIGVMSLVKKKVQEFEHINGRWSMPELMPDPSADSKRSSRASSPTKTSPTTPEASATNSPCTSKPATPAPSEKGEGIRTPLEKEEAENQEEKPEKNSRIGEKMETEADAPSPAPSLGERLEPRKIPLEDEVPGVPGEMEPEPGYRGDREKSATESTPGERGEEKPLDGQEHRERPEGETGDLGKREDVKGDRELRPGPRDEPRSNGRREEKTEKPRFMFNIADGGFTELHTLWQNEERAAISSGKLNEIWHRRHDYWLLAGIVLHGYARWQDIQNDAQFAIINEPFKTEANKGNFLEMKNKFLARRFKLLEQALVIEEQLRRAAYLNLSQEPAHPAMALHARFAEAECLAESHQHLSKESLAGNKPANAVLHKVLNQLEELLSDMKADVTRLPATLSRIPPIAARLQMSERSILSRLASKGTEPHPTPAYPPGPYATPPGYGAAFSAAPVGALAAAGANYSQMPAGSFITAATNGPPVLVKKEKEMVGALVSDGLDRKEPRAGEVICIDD
row,Variant,effect of a mutation on the interaction
1,K554R;K779R;K804R,disrupting interaction
2,S824D,decreasing interaction
